The text below walks through data of patent US20030082746.

For data set [1], the system named is T1, pro-transglutaminase derived from S. mobaraense IFO13819 (transglutaminase having the pro-structure part).
T1 sequence: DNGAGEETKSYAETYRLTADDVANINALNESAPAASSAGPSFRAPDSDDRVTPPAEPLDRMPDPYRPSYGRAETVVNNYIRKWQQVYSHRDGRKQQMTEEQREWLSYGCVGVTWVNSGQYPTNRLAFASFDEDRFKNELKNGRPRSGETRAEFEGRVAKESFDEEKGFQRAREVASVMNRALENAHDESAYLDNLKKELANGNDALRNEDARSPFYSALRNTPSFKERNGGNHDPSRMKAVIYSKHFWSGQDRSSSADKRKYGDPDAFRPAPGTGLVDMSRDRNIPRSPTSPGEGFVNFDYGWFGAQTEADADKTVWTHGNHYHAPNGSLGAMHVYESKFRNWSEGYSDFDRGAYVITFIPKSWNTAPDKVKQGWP

Data set [2] has as its target T2, pro-transglutaminase derived from S. mobaraense IFO13819 (transglutaminase having the pro-structure part).
T2 chain: T1 sequence

In the next data set the target is T3, PSFRAP-pNA.
T3 chain: PSFRAP

A further data set concerns the target T4, AP-pNA.
T4 chain: AP

In a further data set the target is T5, Bz-FVR-pNA.
T5 chain: FVR

The target in a further data set is T6, Z-GP-βNA.
T6 chain: GP

A further data set addresses T7, RP-pNA.
T7 chain: RP

In another data set the target is T8, AFP-pNA.
T8 chain: AFP

A further data set addresses T9, Z-AGP-βNA.
T9 chain: AGP

For another data set, the target named is T10, AAP-pNA.
T10 chain: AAP

The target in a further data set is T11, AAPL-pNA.
T11 chain: AAPL

Another data set concerns the target T12, GP-βNA.
T12 chain: GP

Another data set deals with T13, DP-pNA.
T13 chain: DP

The target of the next data set is T14, SFRAP-pNA.
T14 chain: SFRAP

A further data set addresses T15, Suc-AAPF-pNA.
T15 chain: AAPF

The target in the next data set is T16, AAA-pNA.
T16 chain: AAA

In a further data set the target is T17, AAF-pNA.
T17 chain: AAF

For the next data set, the target named is T18, Z-GAP-βNA.
T18 chain: GAP

The target of a further data set is T19, FRAP-pNA.
T19 chain: FRAX

As for Dispase (Boeringer Manheim Co. Ltd.), in data set [1], the “cleavage of the pro-transglutaminases by Dispase digestion (SDS-PAGE)” value is “the cleavage of the pro-transglutaminases was confirmed by SDS-PAGE”.

B1: proline specific peptidase (svPEP) produced by S. mobaraense IFO13819 (protein)
chain: QADIKDRILKIPGMKFVEEKPYQGYRYLVMTYRQPVDHRNPGKGTFEQRFTLLHKDTDRPTVFFTSGYNVSTNPSRSEPTRIVDGNQVSMEYRFFTPSRPQPADWSKLDIWQAASDQHRLYQALKPVYGKNWLATGGSKGGMTATYFRRFYPNDMNGTVAYVAPNDVNDKEDSAYDKFFQNVGDKACRTQLNSVQREALVRRDEIVARYEKWAKENGKTFKVVGSADKAYENVVLDLVWSFWQYHLQSDCASVPATKASTDELYKFIDDISGFDGYTDQGLERFTPYYYQAGTQLGAPTVKNPHLKGVLRYPGINQPRSYVPRDIPMTFRPGAMADVDRWVREDSRNMLFVYGQNDPWSGEPFRLGKGAAARHDYRFYAPGGNHGSNIAQLVADERAKATAEVLKWAGVAPQAVQKDEKAAKPLAPFDAKLDRVKNDKQSALRP
On to B1, for which the “N-terminal amino acid sequence of the cleaved transglutaminase (SAMP45 and svPEP co-secreted)” value in [2] is recorded as “it had the same sequence as the naturally occurring transglutaminase derived from S. mobaraense having Asp as the N-terminal amino acid”. In addition, the relative activity (%) with PSFRAP-pNA worked out at 0.2%; with AP-pNA, 0.53%; in the data set with Bz-FVR-pNA it was 0.002%; with Z-GP-βNA, 0.04%; in the data set with RP-pNA, 0.94%; in the data set with AFP-pNA, 26.3%. The relative activity (%) in the data set with Z-AGP-βNA was 0.78%; with AAP-pNA, 100%; in the data set with AAPL-pNA it was 0.3%; in the data set with GP-βNA, 0.4%; with DP-pNA it was 0%; in the data set with SFRAP-pNA, 1.23%. In addition, the relative activity (%) with Suc-AAPF-pNA stood at 0.01%; in the data set with AAA-pNA, 8.5%; in the data set with AAF-pNA, 4.1%; in the data set with Z-GAP-βNA, 1.2%; with FRAP-pNA, 49%.
